B1: H183/L072 VL F96P (antibody, name in Kabat numbering, V domains shown)
VH: QVQLVESGGGLVQPGRSLRLSCAASGFTFSNAWMHWVRQAPGKGLEWVAQIKDKGNAYAAYYAPSVKGRFTISRDDSKNSIYLQMNSLKTEDTAVYYCHYVHYASASTVLPAFGVDAWGQGTTVTVSS
VL: DIVMTQSPLSLPVTPGEPASISCQASQELVHMNRNTYLHWYQQKPGQAPRLLIYKVSNRFPGVPDRFSGSGSGTDFTLKISRVEAEDVGVYYCAQGTSVPPTFGQGTKLEIK
notes: Dual-Ig
B2: H183/L072 VL H27dK (antibody, name in Kabat numbering, V domains shown)
VH: B1 VH
VL: B1 VL with H31K, P101F
notes: Dual-Ig
B3: H183/L072 VL H27dA (antibody, name in Kabat numbering, V domains shown)
VH: B1 VH
VL: B1 VL with H31A, P101F
notes: Dual-Ig
B4: H183/L072 VL H27dI (antibody, name in Kabat numbering, V domains shown)
VH: B1 VH
VL: B1 VL with H31I, P101F
notes: Dual-Ig
B5: H183/L072 VL G91N (antibody, name in Kabat numbering, V domains shown)
VH: B1 VH
VL: B1 VL with G96N, P101F
notes: Dual-Ig
B6: H183/L072 VL G91Q (antibody, name in Kabat numbering, V domains shown)
VH: B1 VH
VL: B1 VL with G96Q, P101F
notes: Dual-Ig
B7: H183/L072 VL G91H (antibody, name in Kabat numbering, V domains shown)
VH: B1 VH
VL: B1 VL with G96H, P101F
notes: Dual-Ig
B8: H183/L072 VL H27dG (antibody, name in Kabat numbering, V domains shown)
VH: B1 VH
VL: B1 VL with H31G, P101F
notes: Dual-Ig
B9: H183/L072 VL H27dF (antibody, name in Kabat numbering, V domains shown)
VH: B1 VH
VL: B1 VL with H31F, P101F
notes: Dual-Ig
B10: H183/L072 VL F96Q (antibody, name in Kabat numbering, V domains shown)
VH: B1 VH
VL: B1 VL with P101Q
notes: Dual-Ig
B11: H183/L072 VL G91P (antibody, name in Kabat numbering, V domains shown)
VH: B1 VH
VL: B1 VL with G96P, P101F
notes: Dual-Ig
B12: H183/L072 VL H27dD (antibody, name in Kabat numbering, V domains shown)
VH: B1 VH
VL: B1 VL with H31D, P101F
notes: Dual-Ig
B13: H183/L072 VL G91E (antibody, name in Kabat numbering, V domains shown)
VH: B1 VH
VL: B1 VL with G96E, P101F
notes: Dual-Ig
B14: H183/L072 VL G91I (antibody, name in Kabat numbering, V domains shown)
VH: B1 VH
VL: B1 VL with G96I, P101F
notes: Dual-Ig
B15: H183/L072 VL G91D (antibody, name in Kabat numbering, V domains shown)
VH: B1 VH
VL: B1 VL with G96D, P101F
notes: Dual-Ig
B16: H183/L072 VL G91T (antibody, name in Kabat numbering, V domains shown)
VH: B1 VH
VL: B1 VL with G96T, P101F
notes: Dual-Ig
B17: H183/L072 VL G91M (antibody, name in Kabat numbering, V domains shown)
VH: B1 VH
VL: B1 VL with G96M, P101F
notes: Dual-Ig
B18: H183/L072 VL G91R (antibody, name in Kabat numbering, V domains shown)
VH: B1 VH
VL: B1 VL with G96R, P101F
notes: Dual-Ig
B19: H183/L072 VL F96R (antibody, name in Kabat numbering, V domains shown)
VH: B1 VH
VL: B1 VL with P101R
notes: Dual-Ig
B20: H183/L072 VL G91W (antibody, name in Kabat numbering, V domains shown)
VH: B1 VH
VL: B1 VL with G96W, P101F
notes: Dual-Ig
B21: H183/L072 VL H27dE (antibody, name in Kabat numbering, V domains shown)
VH: B1 VH
VL: B1 VL with H31E, P101F
notes: Dual-Ig
B22: H183/L072 VL G91K (antibody, name in Kabat numbering, V domains shown)
VH: B1 VH
VL: B1 VL with G96K, P101F
notes: Dual-Ig
B23: H183/L072 VL G91S (antibody, name in Kabat numbering, V domains shown)
VH: B1 VH
VL: B1 VL with G96S, P101F
notes: Dual-Ig
B24: H183/L072 VL F96W (antibody, name in Kabat numbering, V domains shown)
VH: B1 VH
VL: B1 VL with P101W
notes: Dual-Ig
B25: H183/L072 VL G91L (antibody, name in Kabat numbering, V domains shown)
VH: B1 VH
VL: B1 VL with G96L, P101F
notes: Dual-Ig
B26: H183/L072 VL F96S (antibody, name in Kabat numbering, V domains shown)
VH: B1 VH
VL: B1 VL with P101S
notes: Dual-Ig
B27: H183/L072 VL G91F (antibody, name in Kabat numbering, V domains shown)
VH: B1 VH
VL: B1 VL with G96F, P101F
notes: Dual-Ig
B28: H183/L072 VL G91V (antibody, name in Kabat numbering, V domains shown)
VH: B1 VH
VL: B1 VL with G96V, P101F
notes: Dual-Ig
B29: H183/L072 VL F96V (antibody, name in Kabat numbering, V domains shown)
VH: B1 VH
VL: B1 VL with P101V
notes: Dual-Ig
B30: H183/L072 VL F96T (antibody, name in Kabat numbering, V domains shown)
VH: B1 VH
VL: B1 VL with P101T
notes: Dual-Ig
B31: H183/L072 VL G91A (antibody, name in Kabat numbering, V domains shown)
VH: B1 VH
VL: B1 VL with G96A, P101F
notes: Dual-Ig

The results in this text go back to patent US20210388087A1 (Chugai, published 2021).

Where a chain is given by its changes, count along the chain named.

For the experiment, the target named is T1, Human CD137 ECD (human).
T1 construct: entry includes C-terminal His-tag and biotin acceptor peptide; also called human CD137 extracellular domain; 4-1BB
T1 sequence (chain, as listed by the source limits assumed): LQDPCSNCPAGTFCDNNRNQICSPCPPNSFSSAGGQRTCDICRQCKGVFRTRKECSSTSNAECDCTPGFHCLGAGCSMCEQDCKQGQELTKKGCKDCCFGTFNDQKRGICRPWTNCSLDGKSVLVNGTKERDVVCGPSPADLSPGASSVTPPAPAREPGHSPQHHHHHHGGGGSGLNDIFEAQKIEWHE
Description: Biacore SPR, vs parent H183/L072.
As for B1, the “fold change of affinity” value amounted to 0 fold.

Turning to B2, the “fold change of affinity” value came out at 0.6 fold.

Take B3: the “fold change of affinity” value was found to be 0.7 fold.

For B4, the “fold change of affinity” value came to 0.8 fold. The value for B5 was 0 fold; that for B6 was 0 fold. In the case of B7 it was 0 fold; in that of B8, 0.6 fold; in that of B9, 0.4 fold. The value for B10 was 0 fold; that for B11 was 0 fold; that for B12 was 0.3 fold. In the case of B13, the “fold change of affinity” value amounted to 0 fold. The value for B14 was 0 fold. The value for B15 was 0 fold; that for B16 was 0 fold. The value for B17 was 0 fold; that for B18 was 0 fold; that for B19 was 0 fold. For the molecule B20, the “fold change of affinity” value stood at 0 fold. On to B21, for which the “fold change of affinity” value is 0.6 fold. As for B22, the “fold change of affinity” value worked out at 0 fold.

On to B23, for which the “fold change of affinity” value came out at 0 fold.

For the molecule B24, the “fold change of affinity” value was 0 fold. For the molecule B25, the “fold change of affinity” value was determined as 0 fold. The value for B26 was 0 fold; that for B27 was 0 fold.

In the case of B28, the “fold change of affinity” value is 0 fold. The value for B29 was 0 fold; that for B30 was 0 fold. In the case of B31 it was 0.4 fold.
